Laboratory results as given in patent publication US20260226184A1.

Tests used:
[1] = molecular target: CAR that binds human CD19 (scFv derived from anti-human CD19 antibody clone FMC69, human CD28 and CD3zeta intracellular signaling domains), on human T cells; test: flow cytometry, dose-dependent staining of CD19 CAR T cells, y-axis %Binding; the value stands above the plot, in which only this curve rises
[2] = molecular target: CAR that binds human BCMA (scFv derived from anti-human BCMA antibody clone MSK54, human 41BB and CD3zeta intracellular signaling domains), on human T cells; test: flow cytometry, staining of BCMA CAR T cells with varying concentrations, Alexa647-labeled anti-FLAG secondary
[3] = molecular target: CAR that binds human BCMA (scFv derived from anti-human BCMA antibody clone MSK54, human 41BB and CD3zeta intracellular signaling domains), on human T cells; test: cell-based or functional assay
[4] = molecular target: IL-2R (IL-2 receptor on the BCMA CAR T cells) (human) (UniProt P01589); test: cell-based or functional assay
[5] = molecular target: CAR that binds human BCMA (scFv derived from anti-human BCMA antibody clone MSK54, human 41BB and CD3zeta intracellular signaling domains), on human T cells; test: cell-based or functional assay; remark: listed apart in the source
[6] = molecular target: CAR that binds human BCMA (scFv derived from anti-human BCMA antibody clone MSK54, human 41BB and CD3zeta intracellular signaling domains), on human T cells; test: flow cytometry, anti-CD45 (y) against AF647-tagged BCMA-CH3 (x); CAR + Treatment mouse (BCMA CAR T cells and BCMA-muIL2); Spleen
[7] = molecular target: CAR that binds human BCMA (scFv derived from anti-human BCMA antibody clone MSK54, human 41BB and CD3zeta intracellular signaling domains), on human T cells; test: flow cytometry, anti-CD45 (y) against AF647-tagged BCMA-CH3 (x); CAR only mouse, lower row (CAR T cells without CAR-engager; the text says little to no CD45+ cells persisted); Lymph node
[8] = molecular target: CAR that binds human BCMA (scFv derived from anti-human BCMA antibody clone MSK54, human 41BB and CD3zeta intracellular signaling domains), on human T cells; test: flow cytometry, dose-dependent staining of BCMA CAR T cells, secondary Alexa647-labeled anti-FLAG antibody, y-axis %Binding
[9] = molecular target: CAR that binds human BCMA (scFv derived from anti-human BCMA antibody clone MSK54, human 41BB and CD3zeta intracellular signaling domains), on human T cells; test: flow cytometry, anti-CD45 (y) against AF647-tagged BCMA-CH3 (x); CAR + Treatment mouse (BCMA CAR T cells and BCMA-muIL2); Kidney
[10] = molecular target: CAR that binds human BCMA (scFv derived from anti-human BCMA antibody clone MSK54, human 41BB and CD3zeta intracellular signaling domains), on human T cells; test: flow cytometry, anti-CD45 (y) against AF647-tagged BCMA-CH3 (x); CAR only mouse, lower row (CAR T cells without CAR-engager; the text says little to no CD45+ cells persisted); Kidney
[11] = molecular target: CAR that binds human BCMA (scFv derived from anti-human BCMA antibody clone MSK54, human 41BB and CD3zeta intracellular signaling domains), on human T cells; test: flow cytometry, anti-CD45 (y) against AF647-tagged BCMA-CH3 (x); CAR only mouse, upper row (CAR T cells without CAR-engager; the text says little to no CD45+ cells persisted); Blood
[12] = molecular target: CAR that binds human BCMA (scFv derived from anti-human BCMA antibody clone MSK54, human 41BB and CD3zeta intracellular signaling domains), on human T cells; test: flow cytometry, anti-CD45 (y) against AF647-tagged BCMA-CH3 (x); CAR + Treatment mouse (BCMA CAR T cells and BCMA-muIL2); Bone Marrow Left
[13] = molecular target: CAR that binds human BCMA (scFv derived from anti-human BCMA antibody clone MSK54, human 41BB and CD3zeta intracellular signaling domains), on human T cells; test: flow cytometry, anti-CD45 (y) against AF647-tagged BCMA-CH3 (x); CAR only mouse, upper row (CAR T cells without CAR-engager; the text says little to no CD45+ cells persisted); Bone Marrow Right
[14] = molecular target: CAR that binds human BCMA (scFv derived from anti-human BCMA antibody clone MSK54, human 41BB and CD3zeta intracellular signaling domains), on human T cells; test: flow cytometry, anti-CD45 (y) against AF647-tagged BCMA-CH3 (x); CAR only mouse, lower row (CAR T cells without CAR-engager; the text says little to no CD45+ cells persisted); Liver
[15] = molecular target: CAR that binds human BCMA (scFv derived from anti-human BCMA antibody clone MSK54, human 41BB and CD3zeta intracellular signaling domains), on human T cells; test: flow cytometry, anti-CD45 (y) against AF647-tagged BCMA-CH3 (x); CAR + Treatment mouse (BCMA CAR T cells and BCMA-muIL2); Tumor Eye
[16] = molecular target: CAR that binds human BCMA (scFv derived from anti-human BCMA antibody clone MSK54, human 41BB and CD3zeta intracellular signaling domains), on human T cells; test: flow cytometry, anti-CD45 (y) against AF647-tagged BCMA-CH3 (x); CAR only mouse, lower row (CAR T cells without CAR-engager; the text says little to no CD45+ cells persisted); Lung
[17] = molecular target: CAR that binds human BCMA (scFv derived from anti-human BCMA antibody clone MSK54, human 41BB and CD3zeta intracellular signaling domains), on human T cells; test: flow cytometry, anti-CD45 (y) against AF647-tagged BCMA-CH3 (x); CAR + Treatment mouse (BCMA CAR T cells and BCMA-muIL2); Bone Marrow Right
[18] = molecular target: CAR that binds human BCMA (scFv derived from anti-human BCMA antibody clone MSK54, human 41BB and CD3zeta intracellular signaling domains), on human T cells; test: flow cytometry, anti-CD45 (y) against AF647-tagged BCMA-CH3 (x); CAR + Treatment mouse (BCMA CAR T cells and BCMA-muIL2); Liver
[19] = molecular target: CAR that binds human BCMA (scFv derived from anti-human BCMA antibody clone MSK54, human 41BB and CD3zeta intracellular signaling domains), on human T cells; test: flow cytometry, anti-CD45 (y) against AF647-tagged BCMA-CH3 (x); CAR only mouse, lower row (CAR T cells without CAR-engager; the text says little to no CD45+ cells persisted); Bone Marrow Right
[20] = molecular target: CAR that binds human BCMA (scFv derived from anti-human BCMA antibody clone MSK54, human 41BB and CD3zeta intracellular signaling domains), on human T cells; test: flow cytometry, anti-CD45 (y) against AF647-tagged BCMA-CH3 (x); CAR only mouse, upper row (CAR T cells without CAR-engager; the text says little to no CD45+ cells persisted); Spleen
[21] = molecular target: CAR that binds human BCMA (scFv derived from anti-human BCMA antibody clone MSK54, human 41BB and CD3zeta intracellular signaling domains), on human T cells; test: flow cytometry, anti-CD45 (y) against AF647-tagged BCMA-CH3 (x); CAR only mouse, upper row (CAR T cells without CAR-engager; the text says little to no CD45+ cells persisted); Liver
[22] = molecular target: CAR that binds human BCMA (scFv derived from anti-human BCMA antibody clone MSK54, human 41BB and CD3zeta intracellular signaling domains), on human T cells; test: flow cytometry, anti-CD45 (y) against AF647-tagged BCMA-CH3 (x); CAR only mouse, lower row (CAR T cells without CAR-engager; the text says little to no CD45+ cells persisted); Bone Marrow Left
[23] = molecular target: CAR that binds human BCMA (scFv derived from anti-human BCMA antibody clone MSK54, human 41BB and CD3zeta intracellular signaling domains), on human T cells; test: flow cytometry, anti-CD45 (y) against AF647-tagged BCMA-CH3 (x); CAR only mouse, lower row (CAR T cells without CAR-engager; the text says little to no CD45+ cells persisted); Blood
[24] = molecular target: CAR that binds human BCMA (scFv derived from anti-human BCMA antibody clone MSK54, human 41BB and CD3zeta intracellular signaling domains), on human T cells; test: flow cytometry, anti-CD45 (y) against AF647-tagged BCMA-CH3 (x); CAR only mouse, upper row (CAR T cells without CAR-engager; the text says little to no CD45+ cells persisted); Lung
[25] = molecular target: CAR that binds human BCMA (scFv derived from anti-human BCMA antibody clone MSK54, human 41BB and CD3zeta intracellular signaling domains), on human T cells; test: flow cytometry, anti-CD45 (y) against AF647-tagged BCMA-CH3 (x); CAR + Treatment mouse (BCMA CAR T cells and BCMA-muIL2); Blood
[26] = molecular target: CAR that binds human BCMA (scFv derived from anti-human BCMA antibody clone MSK54, human 41BB and CD3zeta intracellular signaling domains), on human T cells; test: flow cytometry, anti-CD45 (y) against AF647-tagged BCMA-CH3 (x); CAR only mouse, upper row (CAR T cells without CAR-engager; the text says little to no CD45+ cells persisted); Kidney
[27] = molecular target: CAR that binds human BCMA (scFv derived from anti-human BCMA antibody clone MSK54, human 41BB and CD3zeta intracellular signaling domains), on human T cells; test: flow cytometry, anti-CD45 (y) against AF647-tagged BCMA-CH3 (x); CAR only mouse, upper row (CAR T cells without CAR-engager; the text says little to no CD45+ cells persisted); Bone Marrow Left
[28] = molecular target: CAR that binds human BCMA (scFv derived from anti-human BCMA antibody clone MSK54, human 41BB and CD3zeta intracellular signaling domains), on human T cells; test: flow cytometry, anti-CD45 (y) against AF647-tagged BCMA-CH3 (x); CAR only mouse, upper row (CAR T cells without CAR-engager; the text says little to no CD45+ cells persisted); Lymph node
[29] = molecular target: CAR that binds human BCMA (scFv derived from anti-human BCMA antibody clone MSK54, human 41BB and CD3zeta intracellular signaling domains), on human T cells; test: flow cytometry, anti-CD45 (y) against AF647-tagged BCMA-CH3 (x); CAR + Treatment mouse (BCMA CAR T cells and BCMA-muIL2); Lung
[30] = molecular target: CAR that binds human BCMA (scFv derived from anti-human BCMA antibody clone MSK54, human 41BB and CD3zeta intracellular signaling domains), on human T cells; test: flow cytometry, anti-CD45 (y) against AF647-tagged BCMA-CH3 (x); CAR + Treatment mouse (BCMA CAR T cells and BCMA-muIL2); Lymph node

UniProt P01589, sequence (P01589 22-272, chain 1 of 3): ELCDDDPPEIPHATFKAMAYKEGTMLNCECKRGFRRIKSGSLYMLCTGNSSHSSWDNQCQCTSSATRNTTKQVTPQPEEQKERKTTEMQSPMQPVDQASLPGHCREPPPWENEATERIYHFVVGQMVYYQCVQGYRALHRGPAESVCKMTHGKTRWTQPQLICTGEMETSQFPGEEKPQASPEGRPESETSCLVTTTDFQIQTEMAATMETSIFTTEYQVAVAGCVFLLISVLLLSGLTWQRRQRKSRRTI
UniProt P01589, sequence (P14784 27-551, chain 2 of 3, further chain): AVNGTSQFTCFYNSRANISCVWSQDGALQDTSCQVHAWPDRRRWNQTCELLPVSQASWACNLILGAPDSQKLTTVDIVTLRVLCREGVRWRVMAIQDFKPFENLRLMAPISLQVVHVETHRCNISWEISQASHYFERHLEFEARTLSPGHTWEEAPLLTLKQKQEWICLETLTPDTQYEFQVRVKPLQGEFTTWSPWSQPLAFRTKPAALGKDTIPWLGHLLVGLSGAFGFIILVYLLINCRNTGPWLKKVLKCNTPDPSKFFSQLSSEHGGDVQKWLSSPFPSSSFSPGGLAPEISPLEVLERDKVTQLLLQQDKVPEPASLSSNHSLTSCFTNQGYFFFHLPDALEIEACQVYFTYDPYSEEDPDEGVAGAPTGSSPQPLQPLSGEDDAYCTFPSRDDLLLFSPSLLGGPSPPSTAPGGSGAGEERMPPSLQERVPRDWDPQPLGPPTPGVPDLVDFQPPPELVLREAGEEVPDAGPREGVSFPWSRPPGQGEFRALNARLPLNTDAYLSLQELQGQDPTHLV
UniProt P01589, sequence (P31785 23-369, chain 3 of 3, further chain): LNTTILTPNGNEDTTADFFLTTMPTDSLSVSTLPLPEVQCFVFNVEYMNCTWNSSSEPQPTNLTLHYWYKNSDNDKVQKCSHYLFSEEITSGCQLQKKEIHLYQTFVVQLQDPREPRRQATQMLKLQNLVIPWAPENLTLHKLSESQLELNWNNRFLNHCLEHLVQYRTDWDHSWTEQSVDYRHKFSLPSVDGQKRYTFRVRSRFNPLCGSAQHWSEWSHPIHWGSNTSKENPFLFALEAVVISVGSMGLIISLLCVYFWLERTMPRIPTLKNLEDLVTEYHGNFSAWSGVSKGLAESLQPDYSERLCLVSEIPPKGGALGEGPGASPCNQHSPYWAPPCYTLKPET

Molecule: CD19-muIL2 CAR-engager (from UniProt P15391 20-291)
- EC50 [1]: 590 pM

Molecule: BCMA-muIL2 CAR-engager (BCMA-CH3-muIL2-muIL2)
- EC50 [2]: 210 pM
- sensitivity of STAT5 phosphorylation against VHH-muIL2 [3]: > 200 fold
- phosphorylation of STAT5 (pY694) in BCMA CAR T cells, EC50 [4]: 14 pM

Molecule: VHH-muIL2 (control construct with an irrelevant nanobody in place of the BCMA ectodomain in the CH3-muIL2 construct)
- phosphorylation of STAT5 (pY694) in BCMA CAR T cells, EC50 [4]: 3.9 nM

B1: BCMA-CH3-Neo-2/15 CAR-engager (protein)
chain: MLQMAGQCSQNEYFDSLLHACIPCQLRCSSNTPPLTCQRYCNASVTNSVKGTNAEPKSPKSADKTHTAPQPREPQVYTLPPSRDELTKNQVSLTCLVKGFYPSDIAVEWESNGQPENNYKTTPPVLDSDGSFFLYSKLTVDKSRWQQGNVFSCSVMHEALHNHYTQKSLSLSPGKGSHMPKKKIQLHAEHALYDALMILNIVKTNSPPAEEKLEDYAFNFELILEEIARLFESGDQKDEAEKAKRMKEWMKRIKTTASEDEQEEMANAIITILQSWIFS
- lowest threshold of induced expression of CD69 in CAR T cells [5]: 0.01 nM

B2: BCMA-CH3 (dimeric BCMA lacking the muIL2) (protein)
chain: MLQMAGQCSQNEYFDSLLHACIPCQLRCSSNTPPLTCQRYCNASVTNSVKGTNAEPKSPKSADKTHTAPQPREPQVYTLPPSRDELTKNQVSLTCLVKGFYPSDIAVEWESNGQPENNYKTTPPVLDSDGSFFLYSKLTVDKSRWQQGNVFSCSVMHEALHNHYTQKSLSLSPGK
- percent of cells in the upper right quadrant (CD45+ AF647+) [6]: 47.4%
- percent of cells in the upper right quadrant (CD45+ AF647+) [7]: 5.26%
- EC50 (read off the curve) [8]: 200 pM
- percent of cells in the upper right quadrant (CD45+ AF647+) [9]: 1.69%
- percent of cells in the upper right quadrant (CD45+ AF647+) [10]: 0.044%
- percent of cells in the upper right quadrant (CD45+ AF647+) [11]: 0.2%
- percent of cells in the upper right quadrant (CD45+ AF647+) [12]: 0.75%
- percent of cells in the upper right quadrant (CD45+ AF647+) [13]: 0.02%
- percent of cells in the upper right quadrant (CD45+ AF647+) [14]: 0.058%
- percent of cells in the upper right quadrant (CD45+ AF647+) [15]: 1.38%
- percent of cells in the upper right quadrant (CD45+ AF647+) [16]: 0.096%
- percent of cells in the upper right quadrant (CD45+ AF647+) [17]: 1.01%
- percent of cells in the upper right quadrant (CD45+ AF647+) [18]: 3.97%
- percent of cells in the upper right quadrant (CD45+ AF647+) [19]: 0.032%
- percent of cells in the upper right quadrant (CD45+ AF647+) [20]: 0.00572%
- percent of cells in the upper right quadrant (CD45+ AF647+) [21]: 0.13%
- percent of cells in the upper right quadrant (CD45+ AF647+) [22]: 0.013%
- percent of cells in the upper right quadrant (CD45+ AF647+) [23]: 0.13%
- percent of cells in the upper right quadrant (CD45+ AF647+) [24]: 0.18%
- percent of cells in the upper right quadrant (CD45+ AF647+) [25]: 0.69%
- percent of cells in the upper right quadrant (CD45+ AF647+) [26]: 0.21%
- percent of cells in the upper right quadrant (CD45+ AF647+) [27]: 0.054%
- percent of cells in the upper right quadrant (CD45+ AF647+) [28]: 1.08%
- percent of cells in the upper right quadrant (CD45+ AF647+) [29]: 2.69%
- percent of cells in the upper right quadrant (CD45+ AF647+) [30]: 12.2%
